{"source": "paper PMC7138851", "about": "“Quantitative assessment of the determinant structural differences between redox-active and inactive glutaredoxins” (Nature Communications, 2020)", "assay_in_all_cases": "purified protein, by the assay type", "conditions_in_all_cases": "pH 8.0; 25.0 °C", "key": {"[1]": {"substrate": "N[C@@H](CCC(=O)N[C@@H](CSSC[C@H](N)C(=O)O)C(=O)NCC(=O)O)C(=O)O", "design": "GSSCys oxidoreductase assay, steady-state kinetics, coupled NADPH consumption at 340 nm, pH 8.0, 25 °C", "description": "(§1) Steady-state kinetics of wild-type and mutant ScGrx7 and HsGrx5^C122S in the GSSCys and [compound left out] assays were determined spectrophotometrically by monitoring the consumption of NADPH at 340 nm and 25 °C using a thermostated Jasco V-650 UV/vis spectrophotometer[11],[19],[25]. Fresh stock solutions of NADPH, GSH, GR, and GSSCys or [compound left out] were prepared in assay buffer containing 0.1 M Tris/HCl, 1 mM EDTA, pH 8.0 before each experiment. Both assays were performed with 0.1 mM NADPH and 1 U/ml ScGR. The following final protein concentrations were used for Y110F/H/A (5–150 nM), D144A/K (10 nM), E147A/K (10 nM), R153A/E (25–50 nM), ScGrx7^WP (20 nM), ScGrx7^loop (up to 1.4 µM), ScGrx7^WP+loop (up 2.6 µM), HsGrx5^C122S (up to 15 µM), HsGrx5^RR (up to 12 µM), HsGrx5^loop (up to 1.6 µM), and HsGrx5^RR+loop (up to 4.0 µM). For the GSSCys assays, GSH was varied between 50 µM and 1.5 mM at fixed GSSCys concentrations (25, 50, 100, and 150 µM). NADPH, GSH, and GR were mixed in assay buffer before Grx was added and a baseline was recorded for 30 s. All GSSCys assays were started by the addition of GSSCys. The absorbance of a reference cuvette containing all components but no Grx was measured in parallel and subtracted from the obtained Grx activity. For the [compound left out] assays, GSH was varied between 100 µM and 2.0 mM at fixed concentrations of [compound left out] (0.18, 0.37, 0.55, and 0.74 mM). NADPH, GSH, and [compound left out] were preincubated in assay buffer for 2 min before GR was added and a baseline was recorded for 30 s. All [compound left out] assays were started by the addition of enzyme. Kinetic data were analyzed in Excel and SigmaPlot 13 by nonlinear and linear regression according to Michaelis–Menten, Lineweaver–Burk, Eadie–Hofstee, and Hanes theory[11],[19],[25]. 13 Supplementary Figure 7 Supplementary Figure 7 | GSSCys assay steady-state kinetics of ScGrx7 wild-type enzyme and D144X mutants. (a) Michaelis-Menten plots of the GSH-dependent reaction velocity at different initial concentrations of GSSCys. […]"}, "[2]": {"substrate": "N[C@@H](CCC(=O)N[C@@H](CS)C(=O)NCC(=O)O)C(=O)O", "design": "Disulfide oxidoreductase assay, steady-state kinetics, coupled NADPH consumption at 340 nm, pH 8.0, 25 °C", "description": "Steady-state kinetics of wild-type and mutant ScGrx7 and HsGrx5^C122S in the GSSCys and [compound left out] assays were determined spectrophotometrically by monitoring the consumption of NADPH at 340 nm and 25 °C using a thermostated Jasco V-650 UV/vis spectrophotometer[11],[19],[25]. Fresh stock solutions of NADPH, GSH, GR, and GSSCys or [compound left out] were prepared in assay buffer containing 0.1 M Tris/HCl, 1 mM EDTA, pH 8.0 before each experiment. Both assays were performed with 0.1 mM NADPH and 1 U/ml ScGR. The following final protein concentrations were used for Y110F/H/A (5–150 nM), D144A/K (10 nM), E147A/K (10 nM), R153A/E (25–50 nM), ScGrx7^WP (20 nM), ScGrx7^loop (up to 1.4 µM), ScGrx7^WP+loop (up 2.6 µM), HsGrx5^C122S (up to 15 µM), HsGrx5^RR (up to 12 µM), HsGrx5^loop (up to 1.6 µM), and HsGrx5^RR+loop (up to 4.0 µM). For the GSSCys assays, GSH was varied between 50 µM and 1.5 mM at fixed GSSCys concentrations (25, 50, 100, and 150 µM). NADPH, GSH, and GR were mixed in assay buffer before Grx was added and a baseline was recorded for 30 s. All GSSCys assays were started by the addition of GSSCys. The absorbance of a reference cuvette containing all components but no Grx was measured in parallel and subtracted from the obtained Grx activity. For the [compound left out] assays, GSH was varied between 100 µM and 2.0 mM at fixed concentrations of [compound left out] (0.18, 0.37, 0.55, and 0.74 mM). NADPH, GSH, and [compound left out] were preincubated in assay buffer for 2 min before GR was added and a baseline was recorded for 30 s. All [compound left out] assays were started by the addition of enzyme. Kinetic data were analyzed in Excel and SigmaPlot 13 by nonlinear and linear regression according to Michaelis–Menten, Lineweaver–Burk, Eadie–Hofstee, and Hanes theory[11],[19],[25]."}, "[3]": {"substrate": "N[C@@H](CCC(=O)N[C@@H](CS)C(=O)NCC(=O)O)C(=O)O", "design": "GSSCys oxidoreductase assay, steady-state kinetics, coupled NADPH consumption at 340 nm, pH 8.0, 25 °C", "description": "as §1"}, "[4]": {"substrate": "N[C@@H](CCC(=O)N[C@@H](CSSC[C@H](N)C(=O)O)C(=O)NCC(=O)O)C(=O)O", "design": "GSSCys oxidoreductase assay, steady-state kinetics, coupled NADPH consumption at 340 nm, pH 8.0, 25 °C", "description": "as §1", "remark": "listed apart in the source"}, "[5]": {"substrate": "N[C@@H](CCC(=O)N[C@@H](CS)C(=O)NCC(=O)O)C(=O)O", "design": "GSSCys oxidoreductase assay, steady-state kinetics, coupled NADPH consumption at 340 nm, pH 8.0, 25 °C", "description": "as §1", "remark": "listed apart in the source"}}}
{"protein": "ScGrx7 (Saccharomyces cerevisiae S288C) (protein, E. coli XL1-Blue, pQE30; N-terminal MRGS(H)6 tag) SVNESITTHHPDSLVTFDNSGNAPGTHQSVHDTVNTQDKEAEEVDKNSGDAEFDAAAEYNKIMEQSPMIVFSKTGCPYSKKLKALLTNSYTFSPSYYVVELDRHEHTKELQDQIEKVTGRRTVPNVIIGGTSRGGYTEIAELHKNDELLDSFKKWSDGAFTVKANSQSESA", "values": [{"measurement": "Km", "setting": "[1]", "value": "155 ± 29.9", "unit": "µM"}, {"measurement": "kcat", "setting": "[1]", "value": "114 ± 13", "unit": "s⁻¹"}, {"measurement": "kcat/Km", "setting": "[1]", "value": 735000, "unit": "M⁻¹ s⁻¹"}, {"measurement": "Km", "setting": "[2]", "value": "1100 ± 100", "unit": "µM"}, {"measurement": "kcat", "setting": "[2]", "value": "72.9 ± 3.4", "unit": "s⁻¹"}, {"measurement": "kcat/Km", "setting": "[2]", "value": 66500, "unit": "M⁻¹ s⁻¹"}, {"measurement": "Km", "setting": "[3]", "value": "244 ± 27.1", "unit": "µM"}, {"measurement": "kcat", "setting": "[3]", "value": "68 ± 2.4", "unit": "s⁻¹"}, {"measurement": "kcat/Km", "setting": "[3]", "value": 279000, "unit": "M⁻¹ s⁻¹"}, {"measurement": "Km", "setting": "[4]", "value": 257, "unit": "µM"}, {"measurement": "Km", "setting": "[5]", "value": 744, "unit": "µM"}, {"measurement": "kcat", "setting": "[5]", "value": 206, "unit": "s⁻¹"}]}
